{"source": "patent US20050182242A1", "about": "“Global analysis of protein activities using proteome chips” (priority 2001, published 2005)", "molecules": {"B1": {"name": "ROT1: yeast GST-HisX6 fusion protein on proteome chip (protein, UniProt Q03691 25-256, looked up)", "Protein ROT1": "EDESNSIYGTWSSKSNQVFTGPGFYDPVDELLIEPSLPGLSYSFTEDGWYEEATYQVSGNPRNPTCPMASLIYQHGTYNISENGTLVLNPIEVDGRQLFSDPCNDDGVSTYSRYNQTETFKEYAVGIDPYHGIYTLQLYQYDGTPMQPLYLAYRPPMMLPTETLNPTSSATSTDDPSSNKKRSLRSLVRRSLENRHKTNAIKRQNTSFLTSNAIWYISAGMLGVGSLLFLAF", "modifications": "GST-His6 tag", "notes": "yeast GST-HisX6 fusion protein on proteome chip"}, "B2": {"name": "LYS1: yeast GST-HisX6 fusion protein on proteome chip (protein, UniProt P38998 2-373, looked up)", "Saccharopine dehydrogenase …": "AAVTLHLRAETKPLEARAALTPTTVKKLIAKGFKIYVEDSPQSTFNINEYRQAGAIIVPAGSWKTAPRDRIIIGLKEMPETDTFPLVHEHIQFAHCYKDQAGWQNVLMRFIKGHGTLYDLEFLENDQGRRVAAFGFYAGFAGAALGVRDWAFKQTHSDDEDLPAVSPYPNEKALVKDVTKDYKEALATGARKPTVLIIGALGRCGSGAIDLLHKVGIPDANILKWDIKETSRGGPFDEIPQADIFINCIYLSKPIAPFTNMEKLNNPNRRLRTVVDVSADTTNPHNPIPIYTVATVFNKPTVLVPTTAGPKLSVISIDHLPSLLPREASEFFSHDLLPSLELLPQRKTAPVWVRAKKLFDRHCARVKRSSRL", "modifications": "GST-HisX6 tag", "notes": "as for B1"}, "B3": {"name": "AKL1: yeast GST-HisX6 fusion protein on proteome chip (protein, UniProt P38080 2-1108, looked up)", "Serine/threonine-protein …": "SITNGTSRSVSAMGHPAVERYTPGHIVCVGTHKVEVVNYLAEGGFAQIYVVKFLEYLNEFDNTASVPLKIGDVACLKRVLVQDENGLNEMRNEVEVMKKLKGAPNIVQYFDSNASRRRDGVQGFEVLLLMELCPNKSLLDYMNQRLSTKLTEAEIVKIMYDVALSISQMHYLPVSLIHRDIKIENVLVDAKNNFKLADFGSTSTCFPIVTTHQDIALLTQNIYVHTTPQYRSPEMIDLYRCLPINEKSDIWALGVFLYKLLFFTTPFEMTGQFAILHSKYEFPVNKYSSKLINLIIIMLAENPNLRPNIYQVLYHLCEILNVEVPIEDKYAEGAYNFSKYTQFQNKLQNVQLQMYQLQQKKIMQNNKLSDSEENLLNDMFLSSFEISSKLPMNASDGHAAVSRIPSQNVGQELEEEKESQSDQRKSTLSEDKSSRTTSNANSSGTANNPQEINTIQSPGIEDKSIFENKTPGELYYPSVSELDTYLDKELVKQSSDPTISEQSPRLNTQSLPQRQKSTSSYSSGGRSMKSTSYGAATIGSDEALANEKTAGINKMKQHKSNNPFPKMNVAYHSTNELSNDASNFFLEEQQQGQRYQQAQNQTGTQGNTFPDESQYQSRVEQQQQQQDQPKGPANYSQRNFYTGRDRSNKPMQLGGTIAGDSGNRRVNFQNISQNYATNSQSGYLPSQNSPAIPMVRPVISMNQQQAQQIQAQQLQAQQMQAKQQMQAKQQMQVQQQLQVQQQMQIQNANNNGTYVSDRTNHTTEDMRNAQGGEPPILAGNSANEPMHSSSKNEALLIELSPLKEDAGKQSFQDTNEPQTGGIEDAGGSGTIKGSNNNRNGVLNLSLNEMDLSRDDTGAAVSSFSSSSSSASIQQAKLSGRKGSSKRNNYSTDELGDSMVSSESIDIDLDDARRGKTAERRPLHNERGHKDQARSSDASKSNQFKSKDFSSVSTRQPRQSLDLNFQEVNLSSPTLTQEHRNKNDSPAPNSHHSYRVSPHASTAITENKRHSTGHELSTRSNGKHETHRTGSKQRHDLERYRHSKDKDSNSSITISTSTPSEMRKSFARARQSLDLERVRREAMASSASSSGGSNGKRRSFFSVFRSEK", "modifications": "GST-His6 tag", "notes": "as for B1"}, "B4": {"name": "OPY1: yeast GST-HisX6 fusion protein on proteome chip (protein, UniProt P38271 1-328, looked up)", "Pleckstrin homology domain …": "MIAGATAPSSQHEILIASNLIKKPSTSQNKTPTAQSSSGNNGAADGAPQGYHHHHHHHRHLWWPRTTDHQYWCVLRKNQFAYYKTRDEREAISVIPRFDILNFKISELDGILTVYTPSKDLIFKFPRGQNEKVGMELMHNWKIALEKFLSSPSGNESVTTGSDYDEEEDDDDLIVVDEKAGPSSSKHSCSLTMDEQLSREDKEFYRMFDPRNAEHQVCSGILYTKVKKKKLFNRAKWQKFNVELTNTSFNLYSFKTGKLKKSIKLDKIIDCIELDNNSKMKNDDTNFALITFDERLSFKAANDQDMVDWIINFKSGILIRKKLKAENI", "modifications": "GST-His6 fusion tag", "notes": "as for B1"}, "B5": {"name": "MET8: yeast GST-HisX6 fusion protein on proteome chip (protein)", "chain": "MVKSLQLAHQLKDKKILLIGGGEVGLTRLYKLIPTGCKLTLVSPDLHKSIIPKFGKFIQNEDQPDYREDAKRFINPNWDPTKNEIYEYIRSDFKDEYLDLEDENDAWYIIMTCIPDHPESARIYHLCKERFGKQQLVNVADKPDLCDFYFGANLEIGDRLQILISTNGLSPRFGALVRDEIRNLFTQMGDLALEDAVVKLGELRRGIRLLAPDDKDVKYRMDWARRCTDLFGIQHCHNIDVKRLLDLFKVMFQEQNCSLQFPPRERLLSEYCSS", "modifications": "left off: a dimerising Fc or GST", "notes": "as for B1"}, "B6": {"name": "KCC4: yeast GST-HisX6 fusion protein on proteome chip (protein, UniProt P25389 1-1037, looked up)", "Probable …": "MTVANTETHSAAKPSSTIGPWKLGETLGFGSTGKVQLAQHERTGHRTAVKVISKSIFNNNGNHSNDDSVLPYNIEREIVIMKLLSHPNVLSLYDVWETNNNLYLILEYAEKGELFNLLVDHGPLPEREAINCFRQIIIGISYCHALGIVHRDLKPENLLLDSFYNIKIADFGMAALQTDADLLETSCGSPHYAAPEIVSGLPYEGFASDVWSCGVILFALLTGRLPFDEENGNVRDLLLKVQKGQFEMPNDTEISRDAQDLIGKILVVDPRQRIKIRDILSHPLLKKYQTIKDSKSIKDLPRENTYLYPLADSNNHTSASIDDSILQNLVVLWHGRHADDIVSKLKENGTNKEKILYALLYRFKLDSVRGSNKKNRNKIKKTKKNKRSSTLSSSSSLLLNNRSIQSTPRRRTSKRHSREFSSSRKRSSFLLSSNPTDSSPIPLRSSKRITHINVASANTQATPSGVPNPHKRNSKKRSSKRLSYMPNTKRSSLTSKSLSNFTNLIDDDDWEYIEKDAKRTSSNFATLIDEIFEPEKFELAKREKAELQRKVQEAKRQSVNAQKINEDEFGSEVSDGMKELKKINDKVSSPLINYEFSQQELLQDIDTLLTNRYQLSSYTRPISRLDPGLTPVTETLPNNLKEKTALLQDTEKKIIETIRRSKFLGSLLNVRGGLSPGKSELAPIEESPIVSTTPLIYNDRMEPRRISDVEVPHFTRKSKHFTTANNRRSVLSLYAKDSIKDLNEFLIKEDPDLPPQGSTDNESRSEDPEIAESITDSRNIQYDEDDSKDGDNVNNDNILSDFPQGVGISQEYDMKDKNPNQSPISKSAEPTLVVKLPSLSSFQGKNASGLGLYQREPSKVTLPSLTSNNSSVGENIEDGAEKGTESEKIAASLSDDDLKEDNDKKDNDTVNAPTTVKKPPNSVLLKKFSKGKILELEIHAKIPEKRLYEGLHKLLEGWKQYGLKNLVFNITNMIITGKLVNDSILFLRSTLFEIMVLPNGDGRSLIKFNKKTGSTKTLTKLATEIQIILQKEGVLDK", "modifications": "GST-HisX6 tag", "notes": "as for B1"}, "B7": {"name": "APG1: yeast GST-HisX6 fusion protein on proteome chip (protein, UniProt P53104 1-897, looked up)", "Serine/threonine-protein …": "MGDIKNKDHTTSVNHNLMASAGNYTAEKEIGKGSFATVYRGHLTSDKSQHVAIKEVSRAKLKNKKLLENLEIEIAILKKIKHPHIVGLIDCERTSTDFYLIMEYCALGDLTFLLKRRKELMENHPLLRTVFEKYPPPSENHNGLHRAFVLSYLQQLASALKFLRSKNLVHRDIKPQNLLLSTPLIGYHDSKSFHELGFVGIYNLPILKIADFGFARFLPNTSLAETLCGSPLYMAPEILNYQKYNAKADLWSVGTVVFEMCCGTPPFRASNHLELFKKIKRANDVITFPSYCNIEPELKELICSLLTFDPAQRIGFEEFFANKVVNEDLSSYELEDDLPELESKSKGIVESNMFVSEYLSKQPKSPNSNLAGHQSMADNPAELSDALKNSNILTAPAVKTDHTQAVDKKASNNKYHNSLVSDRSFEREYVVVEKKSVEVNSLADEVAQAGFNPNPIKHPTSTQNQNVLLNEQFSPNNQQYFQNQGENPRLLRATSSSSGGSDGSRRPSLVDRRLSISSLNPSNALSRALGIASTRLFGGANQQQQQQQITSSPPYSQTLLNSQLFHELTENIILRIDHLQHPETLKLDNTNIVSILESLAAKAFVVYSYAEVKFSQIVPLSTTLKGMANFENRRSMDSNAIAEEQDSDDAEEEDETLKKYKEDCLSTKTFGKGRTLSATSQLSATFNKLPRSEMILLCNEAIVLYMKALSILSKSMQVTSNWWYESQEKSCSLRVNVLVQWLREKFNECLEKADFLRLKINDLRFKHASEVAENQTLEEKGSSEEPVYLEKLLYDRALEISKMAAHMELKGENLYNCELAYATSLWMLETSLDDDDFTNAYGDYPFKTNIHLKSNDVEDKEKYHSVLDENDRIIIRKYIDSIANRLKILRQKMNHQN", "modifications": "GST-His6 tag", "notes": "as for B1"}}, "data": [{"test_system": "phosphatidylcholine (PC) liposomes", "assay": "Yeast proteome chip probed with PC liposomes", "conditions": "liposome binding signal on yeast proteome chip, Cy3-streptavidin detection", "method_in_brief": "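Signal comes from Cy3- or Cy5-streptavidin recognising 1% (w/w) biotin-DHPE carried in every liposome. Liposomes were PC alone or PC containing 5% (w/w) of a single phosphoinositide, applied to arrayed GST-fusion yeast proteins for 1 h at RT.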", "values": [{"molecule": "B1", "PC": 121.50}, {"molecule": "B2", "PC": 255.33}, {"molecule": "B3", "PC": 207.20}, {"molecule": "B4", "PC": 250.04}, {"molecule": "B5", "PC": 188.12}, {"molecule": "B6", "PC": 123.26}, {"molecule": "B7", "PC": 464.28}]}, {"test_system": "PI(3)P liposomes", "assay": "Yeast proteome chip probed with PI(3)P liposomes", "conditions": "liposome binding signal on yeast proteome chip, Cy3-streptavidin detection", "values": [{"molecule": "B1", "PI(3)P": 33.25}, {"molecule": "B2", "PI(3)P": 3.50}, {"molecule": "B3", "PI(3)P": 19.50}, {"molecule": "B4", "PI(3)P": 17.50}, {"molecule": "B5", "PI(3)P": 117.00}, {"molecule": "B6", "PI(3)P": 33.50}, {"molecule": "B7", "PI(3)P": 72.00}]}, {"test_system": "PI(3,4)P2 liposomes", "assay": "Yeast proteome chip probed with PI(3,4)P2 liposomes", "conditions": "liposome binding signal on yeast proteome chip, Cy3-streptavidin detection", "values": [{"molecule": "B1", "PI(3, 4)P2": 137.98}, {"molecule": "B2", "PI(3, 4)P2": 81.94}, {"molecule": "B3", "PI(3, 4)P2": 132.49}, {"molecule": "B4", "PI(3, 4)P2": 179.27}, {"molecule": "B5", "PI(3, 4)P2": 95.44}, {"molecule": "B6", "PI(3, 4)P2": 234.84}, {"molecule": "B7", "PI(3, 4)P2": 138.45}]}, {"test_system": "PI(3,4,5)P3 liposomes", "assay": "Yeast proteome chip probed with PI(3,4,5)P3 liposomes", "conditions": "liposome binding signal on yeast proteome chip, Cy3-streptavidin detection", "values": [{"molecule": "B1", "PI(3, 4, 5)P3": 99.11}, {"molecule": "B2", "PI(3, 4, 5)P3": 61.20}, {"molecule": "B3", "PI(3, 4, 5)P3": 93.38}, {"molecule": "B4", "PI(3, 4, 5)P3": 41.17}, {"molecule": "B5", "PI(3, 4, 5)P3": 25.42}, {"molecule": "B6", "PI(3, 4, 5)P3": 65.47}, {"molecule": "B7", "PI(3, 4, 5)P3": 92.70}]}, {"test_system": "PI(4)P liposomes", "assay": "Yeast proteome chip probed with PI(4)P liposomes", "conditions": "liposome binding signal on yeast proteome chip, Cy3-streptavidin detection", "values": [{"molecule": "B1", "PI(4)P": 52.04}, {"molecule": "B2", "PI(4)P": 198.15}, {"molecule": "B3", "PI(4)P": 189.44}, {"molecule": "B4", "PI(4)P": 188.13}, {"molecule": "B5", "PI(4)P": 175.94}, {"molecule": "B6", "PI(4)P": 84.92}, {"molecule": "B7", "PI(4)P": 668.47}]}, {"test_system": "PI(4,5)P2 liposomes", "assay": "Yeast proteome chip probed with PI(4,5)P2 liposomes", "conditions": "liposome binding signal on yeast proteome chip, Cy3-streptavidin detection", "values": [{"molecule": "B1", "PI(4, 5)P2": 63.58}, {"molecule": "B2", "PI(4, 5)P2": 22.21}, {"molecule": "B3", "PI(4, 5)P2": 57.48}, {"molecule": "B4", "PI(4, 5)P2": 37.89}, {"molecule": "B5", "PI(4, 5)P2": 244.09}, {"molecule": "B6", "PI(4, 5)P2": 67.06}, {"molecule": "B7", "PI(4, 5)P2": 319.65}]}]}
